These results are taken from patent publication US20150299301A1 (published 2015).

The experiment has as its target T1, mouse serum albumin (mouse, UniProt P07724 25-608).
T1 construct: also called MSA; mouse albumin
The experiment is described as follows: phage on blotted plasma (1/10).

T1 sequence (P07724 25-608 limits assumed): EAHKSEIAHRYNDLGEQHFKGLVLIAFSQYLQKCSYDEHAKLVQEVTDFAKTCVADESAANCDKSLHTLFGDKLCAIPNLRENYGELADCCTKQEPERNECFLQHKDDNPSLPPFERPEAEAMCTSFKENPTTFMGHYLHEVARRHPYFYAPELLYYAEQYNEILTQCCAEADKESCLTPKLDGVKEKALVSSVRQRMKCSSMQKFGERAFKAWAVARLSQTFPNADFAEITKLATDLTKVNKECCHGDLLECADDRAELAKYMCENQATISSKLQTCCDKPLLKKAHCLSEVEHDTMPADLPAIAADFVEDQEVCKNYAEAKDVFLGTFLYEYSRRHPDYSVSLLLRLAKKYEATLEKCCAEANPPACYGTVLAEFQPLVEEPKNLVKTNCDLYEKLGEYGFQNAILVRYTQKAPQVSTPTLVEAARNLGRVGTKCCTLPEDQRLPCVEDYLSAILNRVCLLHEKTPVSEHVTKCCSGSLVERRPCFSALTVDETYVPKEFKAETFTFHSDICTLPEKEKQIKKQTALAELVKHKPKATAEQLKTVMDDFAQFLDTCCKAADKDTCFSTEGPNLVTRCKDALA
Experimental: A SDS-PAGE was run for plasma (1/10 dilution) from different species (baboon, pig, hamster, human, rat. mouse and rabbit) and blotted on a nitrocellulose membrane. Phages were prepared for clones MSA 21. […] Phages were allowed to bind to the nitrocellulose blotted serum albumins and unbound phages were washed away. Binding was detected with a anti-M13 polyclonal antibody coupled to HRP. DAP was used as a substrate for detection.

B1: MSA24 (VHH)
VHH: QVQLQESGGGLVQPGNSLRLSCAASGFTFRNFGMSWVRQAPGKEPEWVSSISGSGSNTIYADSVKDRFTISRDNAKSTLYLQMNSLKPEDTAVYYCTIGGSLSRSSQGTQVTVSS
Regarding B1, the binding result is listed as “binds”.
